IntAct's records for PubMed 36931259

B1: 14-3-3 protein sigma (Homo sapiens), P31947 (parent)
chain: MERASLIQKAKLAEQAERYEDMAAFMKGAVEKGEELSCEERNLLSVAYKNVVGGQRAAWRVLSSIEQKSNEEGSEEKGPEVREYREKVETELQGVCDTVLGLLDSHLIKEAGDAESRVFYLKMKGDYYRYLAEVATGDDKKRIIDSARSAYQEAMDISKKEMPPTNPIRLGLALNFSVFHYEIANSPEEAISLAKTTFDEAMADLHTLSEDSYKDSTLIMQLLRDNLTLWTADNAGEEGGEAPQEPQS
partner: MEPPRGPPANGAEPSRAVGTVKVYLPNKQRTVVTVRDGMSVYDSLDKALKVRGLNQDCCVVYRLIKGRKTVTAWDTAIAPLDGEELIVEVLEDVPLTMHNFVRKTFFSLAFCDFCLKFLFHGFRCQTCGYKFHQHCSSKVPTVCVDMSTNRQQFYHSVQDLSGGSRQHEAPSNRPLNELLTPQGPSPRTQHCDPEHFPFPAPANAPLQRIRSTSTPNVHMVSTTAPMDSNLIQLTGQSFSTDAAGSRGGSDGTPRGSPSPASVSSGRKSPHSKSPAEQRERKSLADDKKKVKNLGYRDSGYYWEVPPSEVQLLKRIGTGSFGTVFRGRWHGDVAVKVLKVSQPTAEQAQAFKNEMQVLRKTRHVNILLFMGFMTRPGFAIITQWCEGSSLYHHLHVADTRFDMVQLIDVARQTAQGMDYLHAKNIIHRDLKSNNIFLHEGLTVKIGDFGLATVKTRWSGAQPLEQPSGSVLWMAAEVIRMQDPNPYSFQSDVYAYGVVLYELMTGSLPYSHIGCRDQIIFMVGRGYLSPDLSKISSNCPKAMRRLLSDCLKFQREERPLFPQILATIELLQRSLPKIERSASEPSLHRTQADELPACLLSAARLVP

Variants of: B1
Details: with araf_human ARAF

Variant | effect of a mutation on the interaction
K49E;R56E;V178D | decreasing interaction strength
